Publication PMC6425953 (Cell reports, 2019)

B2: His6-Rga7(1–320) (domain or fragment)
chain: MLSAPSSSTTPASPPTSPPNTTSSDDFAVLKEPKVEAILNSELGLAILNDRIKDYLLTCKELAGFFKKRSILEEESGKNLQKLAKSYLETFQSKHHSPQSFSASVITSMEIHEQLANHSLTLQKTLSAFSDQVIEFHKNAERKRKSIKEYAKKQENAYLEAVMQMDKSKSRFKGAETEYNRALDNKNTGDSQKKVGFFKPKSNAQLTKLEDEARLKAENAESDMHSKIENAQNVQKQLLCIHRPNYIKQFFSLQREIESSLIANYLRYTKLCESNTLLNGLTIRPQKPTPTNCGLQHALDNINANTDFVQYVLHASIKHE

Key:
[1] = molecular target: B2; assay: supernatant depletion assay
[2] = molecular target: the molecule itself; assay: AUC

B1: GST-Rng10(751–1,038) (domain or fragment)
chain: SNSKAPAIEETTTTKVEVVAAHDAVSISSNSSTHKSHSEPLNRDELEVAALSRGSLPEPPKPNKQIVVQEEDQRDTLSLKTSTTGLSSHSKSAENNSTQQSTTSPSINSGASADAVSSGISKKADNSETNLNYFATLDAFVKSPLMSFDGLGELGSTDQRYNFFNQKIQEYSAYDSGLDNWIQFCLEKDGEAPKEAPPPPRSEPVSTTTKLAKRITQPSLSPARSTVTITHNIATEAKKKSKSAANDILHLFKKKAKSEQSNAKSSSSSIKESKKMKTLFGKKLGFKS
Kd [1]: 430 nM

B2
stoichiometry N [2]: 2

B3: GST-Rng10(751–950) (domain or fragment)
chain: SNSKAPAIEETTTTKVEVVAAHDAVSISSNSSTHKSHSEPLNRDELEVAALSRGSLPEPPKPNKQIVVQEEDQRDTLSLKTSTTGLSSHSKSAENNSTQQSTTSPSINSGASADAVSSGISKKADNSETNLNYFATLDAFVKSPLMSFDGLGELGSTDQRYNFFNQKIQEYSAYDSGLDNWIQFCLEKDGEAPKEAPPPP
Kd [1]: 690 nM
